Assay results reported in PMC10199097, “Molecular mechanism of hyperactivation conferred by a truncation of TRPA1” (Nature Communications, 2023).

B1: R919* human TRPA1 mutant (CRAMPT syndrome truncation) (domain or fragment, UniProt O75762 1-918, looked up)
chain: MKRSLRKMWRPGEKKEPQGVVYEDVPDDTEDFKESLKVVFEGSAYGLQNFNKQKKLKRCDDMDTFFLHYAAAEGQIELMEKITRDSSLEVLHEMDDYGNTPLHCAVEKNQIESVKFLLSRGANPNLRNFNMMAPLHIAVQGMNNEVMKVLLEHRTIDVNLEGENGNTAVIIACTTNNSEALQILLKKGAKPCKSNKWGCFPIHQAAFSGSKECMEIILRFGEEHGYSRQLHINFMNNGKATPLHLAVQNGDLEMIKMCLDNGAQIDPVEKGRCTAIHFAATQGATEIVKLMISSYSGSVDIVNTTDGCHETMLHRASLFDHHELADYLISVGADINKIDSEGRSPLILATASASWNIVNLLLSKGAQVDIKDNFGRNFLHLTVQQPYGLKNLRPEFMQMQQIKELVMDEDNDGCTPLHYACRQGGPGSVNNLLGFNVSIHSKSKDKKSPLHFAASYGRINTCQRLLQDISDTRLLNEGDLHGMTPLHLAAKNGHDKVVQLLLKKGALFLSDHNGWTALHHASMGGYTQTMKVILDTNLKCTDRLDEDGNTALHFAAREGHAKAVALLLSHNADIVLNKQQASFLHLALHNKRKEVVLTIIRSKRWDECLKIFSHNSPGNKCPITEMIEYLPECMKVLLDFCMLHSTEDKSCRDYYIEYNFKYLQCPLEFTKKTPTQDVIYEPLTALNAMVQNNRIELLNHPVCKEYLLMKWLAYGFRAHMMNLGSYCLGLIPMTILVVNIKPGMAFNSTGIINETSDHSEILDTTNSYLIKTCMILVFLSSIFGYCKEAGQIFQQKRNYFMDISNVLEWIIYTTGIIFVLPLFVEIPAHLQWQCGAIAVYFYWMNFLLYLQRFENCGIFIVMLEVILKTLLRSTVVFIFLLLAFGLSFYILLNLQDPFSSPLLSIIQTFSMMLGDINY
notes: human TRPA1 with the patients' nonsense mutation at R919 (c.2755C>T); lacks the final 201 of 1119 amino acids (second pore helix, S6 and the whole cytoplasmic C-terminus); also called R919* TRPA1; R919* hTRPA1; source: HEK293T, transfected, in lysate (in intact cells for proximity biotinylation)
B2: wild type (WT) human TRPA1 (Transient Receptor Potential Ankyrin subtype 1) (natural protein, UniProt O75762 1-1119, looked up)
chain: MKRSLRKMWRPGEKKEPQGVVYEDVPDDTEDFKESLKVVFEGSAYGLQNFNKQKKLKRCDDMDTFFLHYAAAEGQIELMEKITRDSSLEVLHEMDDYGNTPLHCAVEKNQIESVKFLLSRGANPNLRNFNMMAPLHIAVQGMNNEVMKVLLEHRTIDVNLEGENGNTAVIIACTTNNSEALQILLKKGAKPCKSNKWGCFPIHQAAFSGSKECMEIILRFGEEHGYSRQLHINFMNNGKATPLHLAVQNGDLEMIKMCLDNGAQIDPVEKGRCTAIHFAATQGATEIVKLMISSYSGSVDIVNTTDGCHETMLHRASLFDHHELADYLISVGADINKIDSEGRSPLILATASASWNIVNLLLSKGAQVDIKDNFGRNFLHLTVQQPYGLKNLRPEFMQMQQIKELVMDEDNDGCTPLHYACRQGGPGSVNNLLGFNVSIHSKSKDKKSPLHFAASYGRINTCQRLLQDISDTRLLNEGDLHGMTPLHLAAKNGHDKVVQLLLKKGALFLSDHNGWTALHHASMGGYTQTMKVILDTNLKCTDRLDEDGNTALHFAAREGHAKAVALLLSHNADIVLNKQQASFLHLALHNKRKEVVLTIIRSKRWDECLKIFSHNSPGNKCPITEMIEYLPECMKVLLDFCMLHSTEDKSCRDYYIEYNFKYLQCPLEFTKKTPTQDVIYEPLTALNAMVQNNRIELLNHPVCKEYLLMKWLAYGFRAHMMNLGSYCLGLIPMTILVVNIKPGMAFNSTGIINETSDHSEILDTTNSYLIKTCMILVFLSSIFGYCKEAGQIFQQKRNYFMDISNVLEWIIYTTGIIFVLPLFVEIPAHLQWQCGAIAVYFYWMNFLLYLQRFENCGIFIVMLEVILKTLLRSTVVFIFLLLAFGLSFYILLNLQDPFSSPLLSIIQTFSMMLGDINYRESFLEPYLRNELAHPVLSFAQLVSFTIFVPIVLMNLLIGLAVGDIAEVQKHASLKRIAMQVELHTSLEKKLPLWFLRKVDQKSTIVYPNKPRSGGMLFHIFCFLFCTGEIRQEIPNADKSLEMEILKQKYRLKDLTFLLEKQHELIKLIIQKMEIISETEDDDSHCSFQDRFKKEQMEQRNSRWNTVLRAVKAKTHHLEP
notes: human TRPA1, wild type, 1119 amino acids; Plasmid details are in the Supplementary Information; also called WT TRPA1; WT hTRPA1; source: HEK293T, transfected, in lysate (in intact cells for proximity biotinylation)

Legend:
[1] = target: B2; assay: pull-down; FLAG-MBP-WT and Strep-MBP-R919* hTRPA1 co-transfected; lysates tandem purified for Strep- then FLAG-tagged proteins; eluates probed with anti-MBP antibody, band intensities normalised to WT; conditions: partners not purified
[2] = target: the molecule itself; assay: co-IP + SEC; GFP- and 3×FLAG-tagged subunits co-expressed in HEK293T cells; anti-FLAG immunoprecipitation, eluates analysed by fluorescence size exclusion chromatography (FSEC) of the GFP-tagged subunit; anti-FLAG blot of peak fractions

Row | Binder | stoichiometry N [1] | stoichiometry N [2]
1 | B1 | 1.3 R919* subunits per WT subunit | 
2 | B2 |  | 4
